Test: label from the status in PepcDB records
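Further: failed if final PepcDB status was selected cloned or expressed and not failed if soluble or beyond.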

Sequence | protein production
MSAIDRGSGSSMEEPERPEGPLADADGRESVTDHQDTTAADTPEDATTGSAARSETGAAPDTAQAASAPSAAAAPASEPAASAAEQRDASHEAPAPGSRETPPHPAPRPAPFAPQSHAPHPAWGPPAPDQATARHGAQAYPGPEAPQPAPGRPGPPPAGGVPAGAAQGAWQERPAQHDQPNSPTGAWAVPPSPGGFFPPTGGFPTLHGSSPFEGAPPPGKPQRSGRVVLIAAVTALITSLIVGPAASVATAYFLSEQVAANPAATSAASGDVTKVAAKALPSVVSIATAEGGGSGFIIRDDGLIVTNNHVVSDAQELTVLFHDGSQASATIVGTDPVSDLAVIRAQGVSGLTPASLGDSDQVEVGAEVVAIGAPLGLSGTVTSGVVSAVERPVNTGVSGQQDSPLLPSPDEEEPQATTSTVIDAIQTDAPINPGNSGGPLVNMNGEVIGINTAIATTSGNFMSQSGSIGLGFAIPINQAKPIIEELINTGKATYAAIEASVTVAEDGPGAELVEVNRGGAADQAGLRKGDVIIRIEDRMVTDPNVLIAEIRSHRPGDTVTITYQRGGQTAQTTVTLAAQSLDN | failed
SDWLWQTDAHGRLVHVPERFVEVAKLPPSLLIGAPLADVIGMLCPEDGRCAMGVAAKMAQREPMNDLVVHVVIGGTPRLWSLTAKPMFDAAGEFAGYRGVGRDVTERWRAEQAEAENRAKSSFLAMMSHEIRTPMNGVLGLANSLLETK | failed
MASEDKFESVLSTRYCKNSPLVSILSETNKATLWRQLWIWLAEAEKELGLKQVTQDAIDEMKSNRDVFDWPFIRSEERKLKHDVMAHNHAFGKLCPTAAGIIHLGATSCFVQDNADLIAYRDSIDHILKRFATVIDRLAAFSLKNKEVVTVGRTHYQTASLVTVGKRGVLWAQELLMAFQSLSEFRDKMRFRGIKGATGTQDSFLTLFAGDESKVEALDELVTKKANFSNRFLITGQTYSRQQDSQLVFSLSLLGAAAKKVCTDIRVLQAFGELLEPFEKDQIGSSAMPYKKNPMKSERCCALSRKLINAPQEALTILADQGLERTLDDSAGRRMLIPDVLLTAEALLTTLQNIFEGLSVQTDNVKKIVEDEIAFLGLEKAMMMLTEEGVDRQQAHAVIRKTALEAKQLQATQKVDIRQTMADPFFDSVRDRVVGLVNNPINFTGRCVSQTESFIAKELKPTIDKYLDKSAGNVQLDV | not failed
MTDIHHQPEQTDDELYRHFFSRGGSLRLLADIQGEDLESLYGYAKQLFDGGEIAAARNVYQLLSTLDHWNFDYLLALGLCHQRLGAHNEAVVCFGRAGLIKVDDPRAAFYAGISYRLDGNAEYASKAFKAAINWCGEQIDYQAIKASAVDMLALQQEEVPC | failed
MSATGLEVFDRTLHKTHAWLKAIMEELGTEDRHKAYLALRAVLHALRDRLTVEEVAQLAAQLPMLVRGLYYEGWDPTGKPLKERHKEAFLAHVAEELKTPSGPAVDPEAATRAVFKVLSREISQGELEDVLGLLPKELRALWPQG | not failed
KRREIPLKVLVKAVLFACMLMRKTMASRVRVTILFATETGKSEALAWDLGALFSCAFNPKVVCMDKY | failed
MHCVFLEFNMSVFKKIYFALSAFIVAPHIFLLMSSRHDNPIFRDIEVWSEKLLGKKISGRSGLVASVVELLSLAPEFRNLFYYRVPRARFFKFLSRPENTLHIHTRTIGPGFFIQHGFATIISAESIGADCWINQQVTIGYVDSTGAPKIGDNVTINAGAKVLGNIVIGDNAKVGANAVVVKNIPADCVVVGVPARIIRRAGARVDEAL | failed
MDATMVFKRLLGSLGVGAPTVDTVLDPAPVLPGGTLTGQVHLEGGQTDFDIEHITLELVARVEAEHEDGEDEGVVVFDRFTVGGGFRLGAEEPRSVPFRVTLPWETPITELYGQPLGIVLGVRTELAVADAKDKGDLDQLTVTALPVQEAVLEAFGQLGFGFGSADLEYGHIGGTGQQLPFYQEIELVPAPQYADRLNEIELTFLAGPGGLEVVLEADKRGGLLSSGHDAVTRFSVGHHDARDWAAEVEGWVRQLVEHHTTYGAPGTHGHSTPYAGHGHHDPHGNGGRHHDDHRSGPGVGTAVAAGAAGLAVGVVGGMVAAEVVDEVGDFFEGDDEEEDEG | not failed
MDLHGCAKNQVDAELIIGIMENLSWKNTSDPDEADLIIVNSCGFINSAKEESINAVLQAKAAHPKAKVLLAGCLAERYADILKNDLPEADGIFGNGNLSLLPQLIDSMFPKKTSDEKFIEKTLVPPQIGICGGERPKILNFPRSTYIKITEGCDNFCSFCAIPIIRGRLRSRPIKDICDEIKTFLKKSFYEFNLIGQDLAAYQTGKDDLSEDELHRENCSGLALLLKSISKIKGNFKIRLLYIHPDHFPLDILPIMTADKRFLPYFDIPFQSGAQKIIRAMNRNGAAEVYLDIIKNIREAFEKTNSPYGEPQIRTTFLVGFPGETDEDFNETIKFLKELRPLWSGGFTYSREEDTPSYSFKGKVPKKTAEARLAEIQNAQTSITEKKLDSFIGKEIEVLVEELIQAEDKTFLALGRAWFQAPEVDGAVVLNFNLNKKDIDGNPIAPGSIVKARIAARNGFDLEAVAV | failed
MVQTRSQDDSKDKGKEVEGANPLEERMLRLESMMDAHSKEMMKHMAEMTMVMSRSTAHKLREEHSSGERSLPRSSTSTDDRVGYQDHRRDQGQDQDHRRDQQQNQDHRRDNRLDQVRYEPQQQHYGNLTRLGKIDLPRFDGTGIKEWLFKVEEFFGIDFTPADLKVKMVAIHFDSHAATWHHSFMQSGVGLEVLYDWPGYVRLLK | failed
MKFYIIRHAKVNMRWPKKCTSDEFNQACKKYDGADIVAFQGSLELPVSNIYTSELIRTKQTAQQLFPLQSYQIDKRLNEVPLKAAFSSKIKLPLIFWNILGRLQWLFNSSKQEGIKASKERAEKFCDDLIYKGEDAILITHGFFMITLLKELKKRGFIEKDNGFNFDNLQVIEVKKRLLVY | failed
MDINMFILYFFIYSVLGWAWEEVFCSISEKKLVYRGFLYGPYCPIYGFGVTTVLMMILPFQNNLWALFIFSMIICTVIEYVTATILEALFHTTWWDYHNWPLNVKGRICLPISIFWGFACIIVVRFLHPLVTEFADWVLSWGGWIIPALIVVLMLIDTIKSVTSMLSFQKVLAEFNEKLTAQANELKASVKERAKEFEEGLLKKQENVDMKIAEMEAKRKQDKELAASMRKLKFNERRMLKSFPKMKVKRAAPFKNFNKSILRVDKQKRK | failed
MTESVARLRGEQLTLGYGKYTVAENLTVEIPDGHFTAIIGPNGCGKSTLLRTLSRLMTPAHGHVWLDGEHIQHYASKEVARRIGLLAQNATTLGDITVQELVARGRYPHQPLFTRWRKEDEEAVTKAMQATGITHLADQSVDTLSGGQRQRAWIAMVLAQETAIMLLDEPTTWLDISHQIDLLELLSELNREKGYTLAAVLHDLNQACRYASHLIALREGKIVAQGAPKEIVTAELIERIYGLRCMIIDDPVAGTPLVVPLGRTAPSTANS | failed
MILSNYFKFLSHQLKGWPQQNYYLFYFSLGCQVMTLVSAPITALSILTFIGTTLGVLCVLAINAAKSVNGLLGVISAACFIVVGFSAKNYLSIGEQLAYVVTLDIPVLLSANWNVNMVSKIRKFTGKTWIVAIVATLVVYAISGYLIGALTDDPRPWVDAISFAICLTAGVICFLRYNNQYFWWIASGLAQMVLWFISFRQGSATLAMFINSSVYLMNDVLAFTVSPWYNKHERARLMAEEQAASDAASADASDNQAFGLNH | failed
MSSKIFCKSWGAEYIAADVVRFRLWATGQQKVMLRLAGKDQEMQANGDGWFTLDVAGVTPGTEYNFVLSDGMVVPDPASRAQKTDVNGPSYVVDPGSYTWRNTGWKGSRWEQAVVYEMHTGTFTPEGTFRAAIAKLPYLAELGVTVIEVMPVAQFGGERGWGYDGVLLYAPHSAYGTPDDFKAFIDAAHGYGLSVVLDIVLNHFGPEGNYLPLLAPAFFHKERMTPWGNGIAYDVDAVRRYIIEAPLYWLTEYHLDGLRFDAIDQIEDSSARHVLVEIAQRIREDITDRPIHLTTEDSRNIISLHPRDQDGNAPLFTAEWNDDFHNAVHVFATGETQAYYNDFADAPEKHLARALAEGFAYQGEISPQTGEPRGVKSTGQPPVAFVDFIQNHDQVGNRAQGDRLITLAGAERTKVLLATLLLSPHIPLLFMGEEYGESRPFLFFTDFHGDLARAVREGRAKEFADHAGENVPDPNAPETFQRSKLNWKQQHSEEGKAWLAFTRELLLLRQKHIVPLLSAARESSGTVLQTAPGFIAVSWRFPGGTLSLALNISATTVLLPDLPGKTLFAWPNESTGSLSQHSLIVRLAQGESAS | not failed
MNNPITAVWEITMGCNMRCKHCGSSCENALEGELTTEEALKLCDELGELGFKWITLSGGEPTTRKDWHLIAKRLNENGIIPNMITNGWLMNEEIADKAVEAGINTVAISVDGLEETHDFIRKKGSFQRIMRAFDILRTRNIFYSAITTINNINIKELPRLRDILIEKGVRGWQLQLGLPMGNMAKNNELVAQPYHIDEVIEFSYKTVKEGYNIDVQLADCIGYFNLKEIEVRKNSYGGGRDGYNWTGCGAGKYSLGILHNGDILGCTSVRDRSFIEGNIRQTPIKEIWMNPDSFSWNRKMTKDKLSGLCKKCYFGERCLGGCSNTRLTMEGSVYSENRYCSYNVAISTAREQLDRIEDVDVMLSKAKKFADNGNFQLAEILLSRAIEKGCRDIGVFEFYGYISFMLGNYLDAKKANEEALKINPDSAYANKGMGLSLGRLGELEKGIEYLRKAIALSDENFTDPYYDLAVLLYENGRKEEALEVLEEGRKKYKSFIDTSKDLYDILTNAS | failed
MSHVSYAEPPAQGWDIHCHTVFSDGTETPRTLVEQARKLGLHGVAIADHDTTAGWDEATEASEEIGLPLLLGTEITAVDEDVSVHMLAFQYDPSNEHISSMFANTRAARLRRTKRMVERLSQDFPITWDDVLAQVKEGERTTIGRPHIADALVAAGVYETRSDAFADAVSAKSKYYIPTPSPSTHEVIAAVKGAGGVVVAAHAGDPQRNRRLLSDEQLDAMIADGLDGLEVWHRGNPPEQRERLLTIAARHDLLVTGGSDWHGKGKPNGLGENLTDDDTVREILCRGVDLIGRVGSSHAA | not failed
MTTKPVLVIGGTGKTGRRVVRLLRERGVPARPASRSGEVRFDWLDESTWGPALDGASGVYIVQNDGDPRTRALVRTAVASGVQRLALLSARGVDTPGYYGEDPATSEAFLEGEAAVRESGVDWTVLRPGWFAQNFDEGFFNEGVLAGELRLPAGDGAASWIDVEDIAAVAVAALTEDGHAGRTYELSGPAPLPLAEVLSVIEAAAGRKVRYTPLTTEEFIAELGAQGIPAEEAGLWAAALYPVERGFESKVSDGVRQALGRAPRTFAEYAEAAVAEGAWRD | failed
MTYFLYGNNFSSSILDTISYIIDWIIINMEPITLTLCLLVFAIVMFVWEKVPLAVTSMIVCVALVITGVLNIKQAFAGFIDTNVILFVAMFIVGGALFETGMANKVGGVITRFAKTEKQLIFTIMVVVGLMSGVLSNTGTAAVLIPVVIGVAAKSGFSRSRLLMPLVFAAALGGNLSLIGAPGNLIAQSALQNIGGGFGFFEYAKIGLPMLICGILYFLTIGYRFLPNNATGGEVGSVGEQRDYSHVPQWKQRLSLVVLIATILGMIFEKKIGVSLAVTGCIGALVLVVSGVLTEKQAYKAIDSQTIFIFGGTLALAKALEMTGAGKLVADYVIGMLGQNSSPFMLLIAVFALSVVMTNFMSNTATTALLVPVSLSIAAGMGADPRAVLMATVIGGSCAYATPIGMPANMMVLSAGGYKFVDYAKAGIPLIIVSTIVSLILLPILFPFHP | failed

From a protein production outcome set (Wang et al. 2014)
